The target in test [1] is T1, murine CD47 on CT26 cells (Mus musculus, UniProt Q61735).
T1 construct: CT26 is a mouse colon carcinoma cell line which expresses CD47 on its cell surface; endogenous in cells; host or cells: CT26 mouse colon carcinoma cells
T1 sequence (Q61735 19-303): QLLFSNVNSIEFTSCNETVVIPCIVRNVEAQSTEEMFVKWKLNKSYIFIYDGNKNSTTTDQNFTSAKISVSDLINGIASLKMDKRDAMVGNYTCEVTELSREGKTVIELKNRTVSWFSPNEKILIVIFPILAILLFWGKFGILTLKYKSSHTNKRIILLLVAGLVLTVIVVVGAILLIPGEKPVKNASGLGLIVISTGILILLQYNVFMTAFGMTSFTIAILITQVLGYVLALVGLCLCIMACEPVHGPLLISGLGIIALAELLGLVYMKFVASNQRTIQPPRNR
Nature of the test: Competition assay on CT26 cells (flow cytometry). Type of test: cell-based. The settings on record: secreted FD6x2sirpα or FD6sirpαhIgG4. How it is done:
Next, a competition assay was conducted to determine whether the murine SIRPα secreted by the genetically engineered bacteria could compete with the binding of a recombinant mSIRPα or an anti-CD47 antibody to murine CD47 on CT26 cells. CT26 cells were grown and flow cytometry protocol was conducted essentially as described above except that recombinant SIRPα (Rndsystems) or an anti-CD47 antibody (Biolegend) was added during the incubation of the secreted FD6×2sirpα or FD6sirpαhIgG4. FIG. 29 and FIG. 30 show the results of the competition with recombinant SIRPalpha and anti-CD47 antibody, respectively.

Test [2] is described as follows: SIRPα/CD47 ELISA binding assay, control coatings. As to conditions: supernatant. (An ELISA detects its analyte on a solid surface through an enzyme-linked reagent.)
A further test concerns the target T2, mCD47 (Mus musculus, UniProt Q61735).
T2 sequence (Q61735 19-303): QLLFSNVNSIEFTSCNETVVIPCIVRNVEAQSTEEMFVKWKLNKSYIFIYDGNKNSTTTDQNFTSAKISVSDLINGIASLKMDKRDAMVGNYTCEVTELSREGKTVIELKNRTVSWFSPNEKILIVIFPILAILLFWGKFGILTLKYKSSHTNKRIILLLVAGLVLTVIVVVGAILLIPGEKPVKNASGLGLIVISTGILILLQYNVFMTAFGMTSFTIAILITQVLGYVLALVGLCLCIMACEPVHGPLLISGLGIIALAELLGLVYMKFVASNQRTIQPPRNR
The test is described as follows: SIRPα/CD47 ELISA binding assay of supernatants. The settings on record: supernatant.

A further test concerns the target T3, CD47 on mouse CT26 cells (Mus musculus, UniProt Q61735).
T3 construct: CT26 is a mouse colon carcinoma cell line which expresses CD47 on its cell surface; endogenous in cells; host or cells: CT26 mouse colon carcinoma cells
T3 sequence (Q61735 19-303): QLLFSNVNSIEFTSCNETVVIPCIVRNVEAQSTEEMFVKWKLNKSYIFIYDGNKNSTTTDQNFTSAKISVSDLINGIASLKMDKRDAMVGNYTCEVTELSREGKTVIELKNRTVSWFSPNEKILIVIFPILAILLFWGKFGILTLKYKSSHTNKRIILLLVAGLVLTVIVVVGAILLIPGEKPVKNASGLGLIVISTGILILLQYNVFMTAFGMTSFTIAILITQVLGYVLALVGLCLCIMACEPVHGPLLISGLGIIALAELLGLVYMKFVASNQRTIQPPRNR
Nature of the test: flow cytometric analysis of CD47 expressing CT26 cells incubated with strain supernatants. The class given is binding. The source says:
FIG. 29 depicts a diagram of a flow cytometric analysis of CT26 cells.
FIG. 30 depicts a diagram of a flow cytometric analysis of CT26 cells.
Background: In flow cytometry, cells or beads pass a laser one at a time.

B1: recombinant SIRPalpha: recombinant SIRPα (Rndsystems) (protein)
chain: KELKVTQPEKSVSVAAGDSTVLNCTLTSLLPVGPIRWYRGVGPSRLLIYSFAGEYVPRIRNVSDTTKRNNMDFSIRISNVTPADAGIYYCVKFQKGSSEPDTEIQSGGGTEVYVLAKPSPPEVSGPADRGIPDQKVNFTCKSHGFSPRNITLKWFKDGQELHPLETTVNPSGKNVSYNISSTVRVVLNSMDVNSKVICEVAHITLDRSPLRGIANLSNFIRVSPTVKVTQQSPTSMNQVNLTCRAERFYPEDLQLIWLENGNVSRNDTPKNLTKNTDGTYNYTSLFLVNSSAHREDVVFTCQVKHDQQPAITRNHTVLGFAHSSDQGSMQTFPDNNATHNWN
With B1, in test [1], the “Competition with secreted SIRPalpha for binding to CD47 on CT26 cells” value is on record as “able to compete”.

B2: Secreted anti-mCD47 scFv: anti-mCD47 scFv secreted by engineered Nissle (SYN3161), in supernatant (protein)
scFv: QVKLLQSGAALVKPGASVKMSCQASGYSFTDYWVTWVKQSHGQSLEWIGEIYPSNTVTNFNDNFKGKATLTVDKSTSTAYMELSRLTSEDSAIYYCTRIGNSGYRVGWFIYWGQGTLVTVLSGGGGSGGGGSGGGGSDTVLTQSPALAVSPGERVTISCKASESVSSHMHWYQQKPGQQPKLLIYKASNLASGVPARFSGSGSGTDFTLTIDPVEADDTATYFCQQGWNGPFTFGAGTRLELKRADAAGSGELGGSGKPIPNPLLGLDSTGSGHHHHHH
Regarding B2, in test [2], the “ELISA signal, coating IgG” value is listed as 0.067 and the “ELISA signal, coating PBS” value was determined as 0.053. Further, the “ELISA signal, coating mCD47” value with mCD47 was 0.527.

B3: murine SIRPalpha: tet-inducible murine SIRPalpha secreted from an E. coli Nissle strain (protein, UniProt P97797 32-513, looked up)
Tyrosine-protein phosphatase …: KELKVTQPEKSVSVAAGDSTVLNCTLTSLLPVGPIRWYRGVGPSRLLIYSFAGEYVPRIRNVSDTTKRNNMDFSIRISNVTPADAGIYYCVKFQKGSSEPDTEIQSGGGTEVYVLAKPSPPEVSGPADRGIPDQKVNFTCKSHGFSPRNITLKWFKDGQELHPLETTVNPSGKNVSYNISSTVRVVLNSMDVNSKVICEVAHITLDRSPLRGIANLSNFIRVSPTVKVTQQSPTSMNQVNLTCRAERFYPEDLQLIWLENGNVSRNDTPKNLTKNTDGTYNYTSLFLVNSSAHREDVVFTCQVKHDQQPAITRNHTVLGFAHSSDQGSMQTFPDNNATHNWNVFIGVGVACALLVVLLMAALYLLRIKQKKAKGSTSSTRLHEPEKNAREITQVQSLIQDTNDINDITYADLNLPKEKKPAPRAPEPNNHTEYASIETGKVPRPEDTLTYADLDMVHLSRAQPAPKPEPSFSEYASVQVQRK
With B3, the “competition of binding to CD47 on CT26 cells by recombinant SIRPalpha” value in the test with CD47 on mouse CT26 cells (FIG. 29) is listed as “recombinant SIRPalpha can compete with the binding”. Further, the “competition of binding to CD47 on CT26 cells by anti-CD47 antibody” value in the test with CD47 on mouse CT26 cells (FIG. 30) was “the antibody can compete with the binding”.

Values taken from US11471494B2, “Microorganisms programmed to produce immune modulators and anti-cancer therapeutics in tumor cells” (Synlogic Operating Company, Inc., priority 2017, dated 2022).
